Measured values: the DeepSol protein solubility set

Assay: soluble on expression in E. coli; label from the status in PepcDB or PDB records

| Sequence | soluble on expression in E. coli |
| --- | --- |
| MGSDKIHHHHHHMKCLRESAIVAYAETKVMEKSDRDVWELDAEVLEALLERSGFEKGEIDGLVMAGFGLTAAGESFWAQVTADQLGLELDYCDQVHIGGCSATGSVARAAAAIDAGLCTTVLLLFADTGVAENNRGDRSFRREWADPYGVFGPPDAFGLLTRRYEHQYGLDYEMLGKLAVTQRAHAVLNENACEKLRKPITIDDYLNSRMIADPIRLLDCVMRCDAASGLLMTSRRRAREKGIDKFITPIGYGERTNFQGGENFVDVTRSGHEACGKRALAQAGLALKDVASFHPYDDFIIAIMLQLEAFGFCGRGQGVQFIREMNFSFDGDLPLNTGGGQISAGQAACCSHNLIEAIRQLMGEGGARQVRNTANALVSGIGWINYSRNWGTSSALVLAPNA | not soluble |
| SMDEVVRIHSSSGTTGKPTVVGYTKHDMEVWGEVMARTFTLAGVTAKDVVHNAYGYGLFTGGLGFHDGAQRVGATIIPASGGFTNRQIMLLRDFKATALTCTPSFAMHLAEVAKSEGFDPRKDFHLKAGIFGAEPSSEGLQRAVADTWGIAYHEIYGLSELIGPGVSCSCEQ | not soluble |
| MQVDINVNVVEKPTGAIMFGAGYSDREGIILNGSIAQNNILGTGNFLSLQVNTGSVNKVISASFNNPYYTINGVSLGLEAFKRDINTRSLSSVGMFNTDTTGANIRFGIPVAENDIVSLGLGYEHTKIDLRDDSPQRFKDFVDQFGKTSNNLPITLSWARDRRNSAIWTTSGMTQRLFGEFGLPFGDLNYYKVSYEQRWFFPVTKMFTLMLNGEVGVGDGYSDKPLPFFKNFFAGGFNSVRGYNINTLGPRDSDDRVLGGSKRIVGNIEVLFPVPFMKEDKSVRLSAFADGGTIVNSFSGLGFDDFRYSAGLAATWISPMGPLKFSVAQPLNNQSGDKLQRFQFQFGQTFLEHHHHHH | not soluble |
| RETFNYMLPGAGVRGAAMARTAGRWGERVVSHNATFKLLTDLRIFFFKKLAPLIPGRVSTMRDADLLNRLVADVDAMDHVYLR | not soluble |
| MSLTDNLQDLISTKLAAAIANPLFPAVDSQLRAGRHISLDQLDNHAFLMDFQGELDSFYRRYNVELIRAPEGFFYLRPKATTLIARSVLTELEMLVGKVLCYLYLSPERLAQQGIFSTQEVYDELLNLADENKLLKAVNQRSSGSDLDKQKLAEKVRAALNRLRRLGMIHGVGEQNSGKFTIAEAVFRFGAEVRAGDDPREAQLRPIRDGRPATPGFWAAGKTRSATGGEHRDEGGDEGGDEERAEGHHHHHH | soluble |
| MGSDKIHHHHHHMKGFMNMFTNDQFKSLLIKTLERKSSSNYYEGGNEIVSKMKISEVTLDETDDFTYYKGYKKGWNTLCTYLKIRVPFDDLDFFESHKDLITQTASSIYDKQGDNVLVDTILVPLPENYEVINFSQLKISDVVSQAIEDAESFMSNGEYQRAFDRVHTAFHGYLIEILKKYEITVPRDENLSKLYSRIQQLIEKEIQPTELADIVKTTIRSSNGMISSLNEARNRHSLAHPNTNIIGKREAKLIIGISSTVTDYISGYLDK | not soluble |
| MEYKSTRHAKYLCNYHFVWIPKYRRKVLTGEVAEYTKEVLRTIAEELGCEVLALEVMPDHIHLFVNCPPRYAPSYLANYFKGKSARLILKKFQELKKSTNGKLWTRSYFVSTSGNVSSETIKKYIEEQWAKENEED | soluble |
| MAHHHHHHMYRSSGELRKYAQCVFALYCLDDGLSISRFRLAWYVLWGKWPEESVVQMLFDKKDKSTGGNEDPTGEEGGIVGSGGLAEKDKHHDGGTPLAQSFPFSALRRRINEKEFVRFAVTYHDTMGADAVGFGVTEEDGEYATVDMQSAFSGVVRARHWLQFHALAGSKGYVTLDDLIATEKVDWLYPPMSGGSASGLMVEQAGDDSSTMPQDDVDRRLAVLSHVFAIIDGDHDGKLNFEDVTRHLAKTA | not soluble |
| SNAIFMDYYENRKVMAEAQNIYEKSPMEEQSQDGEVRKQFKALQQINQEIVGWITMDDTQINYPIVQAKDNDYYLFRNYKGEDMRAGSIFMDYRNDVKSQNRNTILYGHRMKDGSMFGSLKKMLDEEFFMSHRKLYYDTLFEGYDLEVFSVYTTTTDFYYIETDFSSDTEYTSFLEKIQEKSLYKTDTTVTAGDQIVTLSTCDYALDPEAGRLVVHAKLVKRQ | soluble |
| MGSDKIHHHHHHMVLIRLRPCSAVEKDLIHACSPSASALVSKNEKAMKRFFLTTAILLSSVLASYADSLPSAVRDTVIRAGEKTIMIKDGEDDFEVIIQESMPSGDTIRNEKIFRGVYRNGRSIEQRFRNTLINRPNRDKEMPVWGTYGFGSFEWGELKVDDSHSDIGRSHSYRVSIQIFGDIYRLNKYLVLTYALGWDADIYRITDSKTLKNIDGVTTVVDVPGRAECTLTAAYLKAMPALAFNGVRSNLTVYIAPVLRAKVYSAATTDGPDGRLEKLRRVKLNTFSVEARAGINYRNAGIFFTYSLTPLFRSGKGPKLHPYTIGLSLSL | not soluble |
| MSLNETYMMITFQSGMDYWKRCLKGFEDAAQALNVTVEYRGAAQYDIQEQITVLEQAIAKNPAGIAISAIDPVELTDTINKAVDAGIPIVLFDSGAPDSHAHSFLGTNNYNAGMNAAYKMAELLDGEGEVAVITLPNQLNHQERTTGFKETLEAEFPAIEVIAVEDGRGDSLHSRRVAHQLLEDYPNLAGIFATEANGGVGVGDAVRLESRAGEIQIISFDTDKGTLDLVDEGIISATLAQGTWNMGYWSLTYLFHLHHGLTEPQILQTREEAPLPLYVDTGITIVTDENVDYYYADEGHHHHHH | soluble |
| MKSHDLKKALCQWTAMLALVVSGAVWAANGVDFSQSPEVSGTQEGAIRMPKEQDRMPLNYVNQPPMIPHSVEGYQVTTNTNRCLQCHGVESYRTTGAPRISPTHFMDSDGKVGAEVAPRRYFCLQCHVPQADTAPIVGNTFTPSKGYGK | soluble |
| MAHHHHHHGPNTNPVAAWKALKEGNERFVAGRPQHPSQSVDHRAGLAAGQKPTAVIFGCADSRVAAEIIFDQGLGDMFVVRTAGHVIDSAVLGSIEYAVTVLNVPLIVVLGHDSCGAVNAALAAINDGTLPGGYVRDVVERVAPSVLLGRRDGLSRVDEFEQRHVHETVAILMARSSAISERIAGGSLAIVGVTYQLDDGRAVLRDHIGNIGEEV | soluble |
| MGSDKIHHHHHHMEEINKYIQNSSETGGEIYNLIEELFPICRSITGNGVRKTMDIIRKHIPLEIHEVKSGTKVFDWTVPKEWNIKDAYVRNSKGEKVIDFKENNLHVMSYSVPVHKTMTLDELKPYLHTIPGNKDRIPYLTSYYKENWGFSLTQNKFDELCDDDYEVVIDSSLEDGSLTYGEYYIRGELEEEILLTTYTCHPSMCNDNLSGVALITFIAKALSKLKTKYSYRFLFAPETIGSITWLSRNEDKLKNIKMGLVATCVGDAGIKNYKRTKFGDAEIDKIVEKVLMHCGSEYYVADFFPWGSDERQFSSPGINLSVGSLMRSCYGFDGYHTSADNLCYMNKDGLADSYKTYLEVIYTIENNRTYLNLNPKCEPQLGKRGIYRMIGGGSDYPFDEFAMFWVLNMSDGKNSLLDIAYKSGMEFRRIKYAADALYRVELLKLV | not soluble |
| MDSYTSSDEDASRKENEGLNMLNASPEPMEEDDPEEQAEQEEETSRMARPIRSMRKRETTSGESMGDEDEDLEDEEDEDEEAEAREHHESGAHDTSFSNPLSNVDNLIHVGTEYQAIIQPTAEQLEKEPCRDQQIWAFPDEMNENRLTEYISEATGRYQLPIDRALFILNKQSNDFDAAMVQAMRRKEIHDDWTAEEISLFSTCFFHFGKRFKKIHAAMPQRSLSSIIQYYYNTKKVQNYKTMINVHLNETDTYDELFKEVNHLERVPSGYCENCNAKSDLLILNRVMSRHECKPCILYFRLMRVPRPASLRALTKRRQRVLCPEYMKIYVYGYLELMEPANGKAIKRLGIGKEKEEDDDIMVVDDCLLRKPSGPYIVEQSIEADPIDENTCRMTRCFDTPAALALIDNIKRKHHMCVPLVWRVKQTKCMEENEILNEEARQQMFRATMTYSRVPKGEIANWKKDMMALKGRFERFTPELDTTATNGNRSGKVRINYGWSPEEKKNAIRCFHWYKDNFELIAELMATKTVEQIKKFYMDNEKLILESIDTYRAELKSKLGK | not soluble |
| MAKAGREGPRDSVWLSGEGRRGGRRGGQPSGLDRDRITGVTVRLLDTEGLTGFSMRRLAAELNVTAMSVYWYVDTKDQLLELALDAVFGELRHPDPDAGLDWREELRALARENRALLVRHPWSSRLVGTYLNIGPHSLAFSRAVQNVVRRSGLPAHRLTGAISAVFQFVYGYGTIEGRFLARVADTGLSPEEYFQDSMTAVTEVPDTAGVIEDAQDIMAARGGDTVAEMLDRDFEFALDLLVAGIDAMVEQA | soluble |
| MGSDKIHHHHHHMNRRDFLKSALITGAALGLPAGMDPLLTVLKAAERPDLAVVRGTPPAAITRAAIDSLGGMKRFVSRGDVVVVKPNIGWDRTPEYAANTNPEVVGAVVRLCFEAGAKQVKVFDRPVNDPRRTYRQSGIAAAASALGASVLFTDSRKFKDMRINGSSLKSWPLYTEVFEADKVINIPIAKTHGTSKLTLGMKNWMGVMGGWRGRIHQRIDESLVDLATFIKPTLTILDAVRILTDNGPQGGNLADVRRLNMVIAGTDAVAVDAFGATLFGMKPAELGFVRIGHQRRLGSMDLAGMNIRRITL | not soluble |
| SLKKEISILNIPFYNTTQAGFVEELYMAAKNGERRFVVTANPEIVMHARTDKEFEAILGQADYIVPDGIGIIMASEKLGEPLKERVTGYDTMVGLLNKPLSCYFLGAKPEISEVVEAKVREKFPQAVVCGVHHGYFDVLESEAIAKEILVAQPDVIFVALGSPAQEKWILSQIANFTKGIFIGVGGSFDVLTDSVKRAPKIWIKLRLEWVYRLLSNPSRWRRFFAIPQFMLVIRKERKRLKKG | soluble |
| MKALERTVTVKGLAEKEVKANIAIWPINFTEVDNNLPKLYETVQLKTDKVVAFLKERGFSDSEITISLPSIEDRQAQGYVDPNVKYRYSAKVNLSVYTSQIDLMLSSRKQMINLVKEGIAIASQDYENRTEFLFTQLNDVKPTMVQEATQNAREVAEKFAKDSESRLGKIKSASQGQFTISDRDSSTPYIKQIRIVSTLTYYLNDLEHHHHHH | not soluble |
| MRIVVISLFLFSGVFGRASREAEKKQDTVACGELRDEYVRVCTGANTKRREQKDKDFCNAFENICFSIPEGEPDKAKDAEVTGPRTAAISPESAAAVRGETTGSAHKKTNFARFCKEFKNQYLYVCPDPFRFGQKAIVFCPVYSEKCHVPLPDKPVIPQRKSHRKRGPGGAVNQLCRSYQGFAMNYCNNPILTAQSQYRTACDKYWRFCGKFHQQG | not soluble |
| MCTKNETKPLPSFIEERLNFHIQDLIKSNENQKHLVLGKRPSENAVVMQSNDYLSLSHNELIQKAHRDAISERDDNVVMSAIFLQDDQSKPAFEHQLATFVGMESCLLSQSGWAANIGLLQTICAPNLPVYIDFFAHMSLWEGARTAGAQIHPFMHNNMNHLRKQIQRHGAGIIVVDSVYSTIGTIAPLRAIYEMAKEFDCGLVVDESHSLGTHGPEGSGLLQKLGLTQMVDFVTVSLAKTFAYRAGAILGPNKLAQSLPFVAYPAIFSSTVLPQEVVRLEKTLEVIKAADDKRECLFKRAKELAIGLKRIGFNIRSESQIIALECGSERNTERVRDFLEERDVFGAVFCRPATGRNKNIIRFSVNADMTAQQVDHVLSACQEAFDHPDLEFV | not soluble |
| MEYMVLIYRDEAFAPEYGSPEWEQMMGGFLAFNQRLIDGGHWIAGGGLQTTPSATTVRLAAGTVPKVLDGPYAETKEQLGGFYLVRADTLDEVLDLARSLPIEGAIEVRPLTYRPTGE | not soluble |
| MKRIARLLLSCICLALLSGCLYPQERLKQNQIPYKDQVAAVQSAVDEYRKATGGLLPIKTRDMNTPMYLKYPVDFQKLVPRYMQEPPGNAYESGGVFQYMIIDAETNPTVKLLDLRLAERIRDLKLRLSMYTDKHKYPPFQDVVAPGVFTLDYKKLGYKEPPYVVSPFSGNNLPFVIDGNGEIYIDYRSDLYAALKKYPHHYKPGDDIRPILTDHSLFVPAYSLPYTIDAKTNEPIFFTK | not soluble |
